experiment: soluble on expression in E. coli; label from the status in PepcDB or PDB records

Row | Sequence | soluble on expression in E. coli
1 | TPTEGLTIGDKAPTFTICGEKQLIDLKDLRGKYVLLSFWASYDALSRMQNATLNHAVAQADNVEMVSVSFDEYKSIFNETIKKDQISTSNCFVELAGVSSDLYQTYRLKRGFKNFLLDENGVIVAKDVTVSELSS | not soluble
2 | MNNPDLPYRQALECLSQKQYNFTEVRRLLTEAFSAGHPAAAFELAKHLMDADSPYQDREQGMEMLRIAAEQGHPYARYNLAYIQELEGAPPETLIPLYRPLAEEGLPEAQVRLMYLLYASRHFEEALEWAKTSAKNNNPHGQYLLAQYCRYGTPPDFETAHLLYRKSAAQGLPEAHWQLGLQYRFGQGTKVDTAQAVNHLRAAAQQGYIPAYTPLAELILPTAPDEAVHWFQQAAQENDPDAHAALADIYLQGKHLERNHKLALHHAEAAAAERHPEGLRILGDICRYGLGIAPDTEKARHYYRQAAEAGSLSAYQKLISDSALNHPDQYGGIKDSAIRRQRAERLYQKAQALHYGLQCAPEYAAALKLYTEAAELGHSKAQTNLGSMYYFGQGMTADYNEARKWFEKAAAKKDSMAFYNLACIHYSGHGVEPDKEKACRYLQEAINNGYGQKSVLQELLQQWQNAV | not soluble
3 | MSLKYGRDTIVEVDLNAVKHNVKEFKKRVNDENIAMMAAVKANGYGHGAVEVAKAAIEAGINQLAIAFVDEAIELREAGINVPILILGYTSVAAAEEAIQYDVMMTVYRSEDLQGINEIANRLQKKAQIQVKIDTGMSRIGLQEEEVKPFLEELKRMEYVEVVGMFTHYSTADEIDKSYTNMQTSLFEKAVNTAKELGIHIPYIHSSNSAGSMEPSNTFQNMVRVGIGIYGMYPSKEVNHSVVSLQPALSLKSKVAHIKHAKKNRGVSYGNTYVTTGEEWIATVPIGYADGYNRQLSNKGHALINGVRVPVIGRVCMDQLMLDVSKAMPVQVGDEVVFYGKQGEENIAVEEIADMLGTINYEVTCMLDRRIPRVYKENNETTAVVNILRKN | not soluble
4 | MSLNSSFFKMMEKRSYNRFNQEQKAAITYDMKKHLRIIAGAGSGKTQTICAKAVYLMTQKQVDEERILMITFTRNAANELKKRVDNFSQRKTAVHIGTFHSIFFRIYNEICRKFPEVAMQGIQGDFSKDTAQKVNAVLQQLIRKYNLYIFDQYGEKTIASRLDYWQNMNLSVEEMVQLVKEKYDSIDKNARQPISERLYGLLTELQEQKRSQQLLEFNDVLQNLKSALENEEIQHYIGQKYDYLFIDEFQDTNPLQWEIVKRMTKENRIKLIVVGDDDQSIYGFRGSEPAYIKNFEKEYPTKTLFLLTNYRSRAAIVQGANRLISYNKNDRIPKAMIPAQKEAGVMEAYLFSDTKAESQWLIKQIQTFIQKNGKYKESIILYRSASQTQQLVQSLLKTNIPFVLEADSPYEGIFGIKSFQHFYQKIVHWQTALNLQKKNQAYQQLLRQLMADCYLKKSECDQYFSPKYQNIAVADYILSISPNLKSKSAEIREFEEALRKTDQHQEIYSLVQSYLHLPRIAKEIDQSDQEWIREEVKQHATFRRLQALSQETQATAKELKTREGHHHHHH | not soluble
5 | MVQPDDVLLGRYKIRFDIGPGRIGRIFAVLDQQDQSRSRVKVIKVLPMVAGEQFLDDPQTYNEFDFLNHLRGTIGVPNIIQHFQVGRERVMMMDKYLATLEQFRTRCDDRRISDLNIIKIAVRLVNVLEAIHQKGVIHRDLKTTNVMIRSRGQSEVNLVLIDYGLSTFNGTPPRALAPDAKSPEIMFRGHTHVSPALEEGLKADAVDDLQMLAIMLIWCSAYHPFGPIGQESSRKKAEFITNPVKYVKGRPFLRPLMTAIMAQPRGTRPNYQAILDAAAGPFPIDDIRDSLKTEISLLGVRFL | not soluble
6 | MGSDKIHHHHHHMSVSIIDRLQAIFQDVRVSEFMNPDVIYVTPDKTLLHVKEIMRIKRISGVPVVDDKKRVVGIVSLEDIIKALEGSYIKDSVEKRMTKNVVCLKETDTLQDAVKTFEKYGYGRFPVVDDEGKLVGIVTKHDIIYFLLAKLGIMYLHDKRMEEVLEKGTSLITGEVLEKGKADFVFHIDYFDVNMIGIGASKLKRFLLERGVDEELARRIAIATYEAEANVVIHSESDGYIYCFIDNEKITVRVEDRGKGIENLELAMREGYSTAPDHIRELGFGAGMGLPNMKRYSDKMVIISEVGKGVIVEMVFFRRDRGEDKGDSGKTGA | not soluble
7 | SHMLEDPCTSKKVRAARTLLAKNLSFNITEDELKEVFEDALEIRLVSQDGKSKGIAYIEFKSEADAEKNLEEKQGAEIDGRSVSLYYTGEKGGTRG | soluble
8 | MTVQEISRVIDGKRVIVKKPELLIPAGNLEKLKVAIHYGADAVYLGGQEFGLRSNAGNFTLEEMAEGVEFAKKYGAKIYVTTNIFAHNENMDGLEEYLKGIEKAGVTGIIVADPLIIETCKRVAPSVEVHLSTQQSLSNWKAAQYWKEEGLHRLVLAREASYEEMKEIKEKVDIEIEAFVHGAMCIAYSGRCTLSNHMTARDSNRGGCCQSCRWDYDLVQTVSQHKDAKELPLFQEEDAHFAMSPKDLNLILSIPKMIEIGIDSLKVEGRMKSIHYVATVATVYRKVIDAYCADPDNFEFKQEWLDELDKCANRDTAPAFFEGVPGHQEQMFGNHSKKTTYDFAGLVLDYNEETGIVTIEQRNHFKPGHEVEFFGPEIENFTQTVEKIWDEDGNELDAARHPLQIVKFKVDQPVYVNNMMRKSILQ | not soluble
9 | MSLKLSDPGPIFYGHRRVGHNGRYFHCLKFRTMAMNGDEMLRQYLAANPEAAEEWRATRKLKNDPRVTAVGAVLRKLSLDELPQLLNIIRGEMSVVGPRPVVDEELSYYENAAAYYLSTRPGLTGLWQISGRNDVSYKTRVAFDTQYVQNWSMRQDVFIIVKTIPAVCMSRGSYEGHHHHHH | soluble
10 | GPGSMTGLTVPRGEYTNVVVHHRMVGVSAFDDQFNCDWNFELYGVAERIKEHHGGAISDGFRMWLNRVEPGFIVRNFKQSLREAFGLTPPSALLMTSEEDIPHHEVTVYYDFEPAALRFPLLNIRLGE | soluble
11 | MASPHQEPKPGDLIEIFRLGYEHWALYIGDGYVIHLAPPSEYPGAGSSSVFSVLSNSAEVKRERLEDVVGGCCYRVNNSLDHEYQPRPVEVIISSAKEMVGQKMKYSIVSRNCEHFVTQLRYGKSRCKQVEKAKVEVGVATALGILVVAGCSFAIRRYQKKATALEHHHHHH | not soluble
12 | MGTYTVNVSSLNVRTGPSTSHTVLGSVNKGKTVQVVSEVQDWFKINFNGGTGYVSKDFVTKGGSAVLEHHHHHH | not soluble
13 | MGSDKIHHHHHHMRPVDKGKDLGSFKPYNKACAPLQDRLGEYCSYCERWIAAAIEVEHILPKKANPSQKYRWSNFLLACKNCNTGKGSDQIIVTDYLWPDLDNTFLAFCYDDEGRAYPNPRLPPAILEKAKATWTLTNLNWHPDTTFTGMVAPSEKDHRHSHRKQAWIYASDKRNQLLQYDTPDRRVSVAKDALQRGMFSVWMTVFNTTSELDREIRRLLIENFVGTATNCFDRLGNAHRSSTGQI | not soluble
14 | MMVPPRPGFAPLSLESINDRMEMHLFLTSACILYHIYIRDNLLIYQEIWTKYWRGRLAESALKNEISALYLRLPFPRPPTLQSIAEQEVICKDAAPIYVYCSREAMLSHVQSKDLCQFGRANLLACTLAPYRTGVTIEMVRCLFKRLRDGNRVEAGTGEEDLSHFVAFLPTTAFRRGPRFYLGGENVQFFLREGGLELPCHIIAFGRALFSEILADGSSWDWKSVGESSRLNHVRASVELSRNVPTAETTDNWAEAALGTDAVYPVRPPNLTPTQDHPCKPLLSGNRVPNERHRPWKRFFKKLRSVSKHFYFNRLEHHHHHH | soluble
15 | MSLQEGQNRKTSSLSILAIAGVEPYQEKPGEEYMNEAQLSHFKRILEAWRNQLRDEVDRTVTHMQDEAANFPDPVDRAAQEEEFSLELRNRDRERKLIKKIEKTLKKVEDEDFGYCESCGVEIGIRRLEARPTADLCIDCKTLAEIREKQMAGEGGSHHHHHH | soluble
16 | MGSDKIHHHHHHMEKEIPEMFASNYQDWQPIYNWDTCKAGRKEYGKFLCSFLTSSKDDLVVNLNGSWGTGKTELLRRLYVELAERQHPVVYINAWESDFCDDALSVISSEFLNQLEVAFGHNGDPKWLSKFNNLKQKLGKALKFGSLGATMNGEPNAATLLGATSAAVNELPDLASAAVSDNNIRLIEKISSNHANRVQAMKEVREQISALADTMQMVCEAELPIVVLVDELDRCRPTYAIEMLEVIKHFFEARGCVFLVATDTVALEHSIKAVYGASFESEKYLRRFFDRRIALPPLSITQYLKAKALDFTRYQTDQLRLFPFTAINAQLIKIFALLFENAQMSLRDVEQSLQKCVASLEYLQSLGTRPQIVNVIVLMMGSLSSNYRPNRFRIDLQIKYFPMELV | not soluble
17 | GMATYNYPEFGAGLWHFANYIDRYAVDGYGPALSTIDQINAAKEVGELSYVDLPYPFTPGVTLSEVKDALKDAGLKAIGITPEIYLQKWSRGAFTNPDPAARAAAFELMHESAGIVRELGANYVKVWPGQDGWDYPFQVSHKNLWKLAVDGMRDLAGANPDVKFAIEYKPREPRVKMTWDSAARTLLGIEDIGLDNVGVLLDFGHALYGGESPADSAQLIIDRGRLFGMDVNDNLRGWDDDLVVGTVHMTEIFEFFYVLKINNWQGVWQLDQFPFRENHVEAAQLSIRFLKHIYRALDKLDIPALQAAQEAQNPLQAQRIVQDALLSSITVSE | soluble
18 | MGSDKIHHHHHHMIVGGLWMHLNEGSTPMDKYIEITAQKSRMYLLPDSSKVWMQPGSSIRFAEDFKKHRNVWLKGNSLFEVHKNMGRKFRVYIDKAFIEVKGTCFLIKQNNPSANEITLFNGSIEFNVESTQHKIEMKPLQELVYNPADAGTQLRQIENIEWQNGRYNFTQFNLEHLTRIINQMYGSRIIISDKVNKNCAFTGSIRYDESLEDVIDKICFSLNLRKKEINHEIIIYN | not soluble
19 | MAGNSIGQFFRVTTFGESHGIALGCIIDGVPPGIPITEADIQLDLDRRRPGTSRYTTQRRELDQVRILSGVFEGVTTGTSIGLMIENTDQRSQDYSAIKDVFRPGHADYTYEQKYGVRDYRGGGRSSARETAMRVAAGAIAKKYLAQKFGVQVRGYLAQMGDVSCDLLDWDLVEQNPFFCPDASKLEPLDALMRELKKAGDSIGAKITVVAENVPVGLGEPVFDRLDADLAHALMSINAVKGVEIGDGFAVVTKRGSENRDEITPQGFQSNHAGGILGGISSGQPVVAHIALKPTSSIMVPGQTINRQGEAVEMVTRGRHDPCVGIRAVPIAEAMMAIVLMDHLLRQRAQCGDVASDVPRW | not soluble
20 | MFLNTNEILDYSALKYMPNLKSLTVANAKIKDPSFFANLKQLNHLALRGNEFSDVTPLVKMDHLDSLDLSNNKITNVAPLIEMKNVKSLYLSGNQIEDVTALAKMEQLDYLNLANNKITNVAPLSALKNVTYLTLAGNQIEDIKPLYSLPLTDLVLTRNKVKDLSGIEQMKQLEELWIGKNEIKDVTPLSKMTQLKQLHLPNNELKDITPLSSLVNLQKLDLEANYISDLTPASNLKKLVFLSFVANEIRDVRPVIELSKTAYINVQNQKVFLEETEVNKEVKVPIYEKDGKISTKIRLKGEGGTYSNDAVKWSTPGEKVYEFGVKDPFADTGIFFTGSVIQNVVESKADNTSKEDNTSKEDAKVEVVEFKDVPKGHWSEEAIHYLAKENIFKGYGNGQFGFGDSITRGQVASLVQRYLKLENKVEQKERFTDTKGHMFEQDIATVAQAGIMQGDGTGEFRPDGVLTRYEMSVVLYKVFQLKEDGNNKVNFKDVPTGHWAEGYVKALVDNNISKGDGKERFLGDDFVTREQYAQFLYNAITK | not soluble
21 | MAGAGMYGDCSLAATLSYGAVLEPYLHPKPGGVTPYASEGGKSFGDFVLHATLSSRLLAWACLKAWKNGPIGVIASVKERYLREVVPRFKGNIAYGTFMLMAPLAVAIALSKSSEPEELVTTARDTIYCCTGRRESLLHYKILRRLSPSHLGRYRGELPDVASGGERDIPPYPLLLKLNSWDMVHRELAKGYPITLEAYRHSLNRVKEGRSVEEALLEALLKVLAEHGDTLIFQKYGGRAFKMAREEARVAFHVSERWGVRHAITWLERLWRGREWNPGAALDIVAVASGLLLITISRDASS | not soluble

Source: the DeepSol protein solubility set
